Tests used:
[1] = target: Melanophilin GTBM (Mus musculus) (UniProt Q91V27); conditions: cited from earlier work
[2] = target: Mlph-ABD labelled with ATTO 488 NHS Ester dye (mouse) (UniProt Q91V27); test: MST; Monolith NT.115, 25 °C; Mlph-ABD labelled with ATTO 488 at 20 nM; two-fold dilution series (16) of Myo5a-MTD or Myo5a-MTDΔG from 50 uM; 50 mM Tris-HCl pH 7.8, 100 mM NaCl, 10 mM MgCl2, 0.05% Tween 20
Mlph-ABD labelled with ATTO 488 NHS Ester dye (mouse), sequence (Q91V27 401-590): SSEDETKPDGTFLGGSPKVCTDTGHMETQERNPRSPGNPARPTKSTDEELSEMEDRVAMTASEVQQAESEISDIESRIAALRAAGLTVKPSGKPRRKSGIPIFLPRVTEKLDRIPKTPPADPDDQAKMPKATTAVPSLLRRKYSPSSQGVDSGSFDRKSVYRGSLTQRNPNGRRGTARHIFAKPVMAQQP

Melanophilin GTBM (Mus musculus), sequence (Q91V27 176-201): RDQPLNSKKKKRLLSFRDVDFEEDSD
Myosin-5a GTD, sequence (Q99104 1469-1853): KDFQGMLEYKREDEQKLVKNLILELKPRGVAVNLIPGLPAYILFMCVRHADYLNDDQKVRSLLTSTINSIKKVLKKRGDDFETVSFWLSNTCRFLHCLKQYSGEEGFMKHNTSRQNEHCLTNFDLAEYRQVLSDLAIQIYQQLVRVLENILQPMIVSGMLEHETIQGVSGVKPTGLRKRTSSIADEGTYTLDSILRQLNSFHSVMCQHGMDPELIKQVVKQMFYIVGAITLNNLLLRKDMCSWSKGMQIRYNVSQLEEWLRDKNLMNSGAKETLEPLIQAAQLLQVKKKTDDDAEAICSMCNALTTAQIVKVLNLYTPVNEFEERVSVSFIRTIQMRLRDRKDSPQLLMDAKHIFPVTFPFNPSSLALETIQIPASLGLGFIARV

## Myosin-5a GTD (from UniProt Q99104)
[1]
  Kd: 1 µM

## Flag-Myo5a-MTD (residues 1106–1467), bacterial-expressed (domain or fragment)
[2]
  Kd: 0.562 µM
